Patent US8754031B2, “Use of prolactin receptor antagonists in combination with an agent that inactivates the HER2/neu signaling pathway” (Oncolix, Inc., priority 2004, dated 2014)

Columns and labels:
T47D cells = assay: Cell proliferation assay (cell counting), comparison with estrogen and tamoxifen; assay type: cell-based, human
Protocol: Cell proliferation assays. hPRLA was tested for its ability to inhibit breast cancer cell proliferation in tissue culture. The human breast cancer cells were grown in corresponding culture media according to ATCC recommendations. Cells were maintained at 37° C. in a humidified atmosphere of 5% CO2 in air. The assay conditions were essentially as described by Ginsburg and Vonderharr (Cancer Res., 55:2591-2595 (1995)). For individual growth experiments, cells were plated in 12 well culture plates at a density of approximately 2×10^4/ml, 1 ml/well. Cells were then allowed to attach for one day (T-47D, MCF-7, HTB19, and HTB20 cells, except for HTB 123, which is a suspension cells), then the overlying media was removed and changed to serum-free conditions with media containing ITS (insulin-transferring-selenium-BSA-linoleic acid culture supplement; Collaborative Research Bedford, Mass.). Varying concentrations of hPRL alone or in combination with hPRLA were introduced. After an additional three days in culture, cells were harvested after brief trypsinization and counted in a cell counter.
For certain experiments, a mixed cell culture assay was used. In this assay, breast cancer cells were co-cultured with expressor cells which had been transfected with nucleic acid encoding PRL or a PRL variant and expressing those recombinant proteins. By varying the number of expressor cells, the amount of PRL or PRL variant present in the mixed cell culture was increased or decreased. A fixed number of breast cancer cells (T47D) were added to wells of a multi-well cell culture plate. In certain wells, which served as a control, no expresser cells were added. Then, increasing numbers of expresser cells (transfected L cells expressing either HPRL (L-PRL) or hPRLA (L-PRLA)) were added to breast cancer cell-containing wells to create mixed cultures. The same numbers of expressor cells were cultured in parallel (without T47D cells) to serve as controls. After culturing under standard conditions for a period of time, the number of cells present in the wells was counted, and the number of L cells in the corresponding control culture was subtracted. The resulting number could then be compared to the number of T47D cells in the T47D control culture to evaluate the effects of the recombinant product on breast cancer cell proliferation.

[1] = tested on: human breast cancer cell lines MDA-MB-134, T-47D, BT-474 and MCF-7; assay: TUNEL assay, apoptosis by DNA fragmentation in breast cancer cell lines; assay type: cell-based
Protocol: The human breast cancer cell lines MDA-MB-134, T-47D, BT-474 and MCF-7 were obtained from ATCC. These breast cancer cell lines were chosen based on their PRLR levels. The cell line T-47D had the highest PRLR level followed by MDA-MB-134, BT-474, MCF-7 in decreasing order of PRLR levels (Peirce S and Chen W Y., 2001, J. Endocrinol. 171:R1-4).
T-47D cells obtained from ATCC were grown in RPMI 1640 (phenol red free), supplemented with 10% FBS (GIBCO BRL). BT-474 cells were grown in RPMI 1640 medium (phenol red free) supplemented with 10% FBS and ATCC recommended supplements. MCF-7 cells were grown in DMEM medium (phenol red free), supplemented with 10% FBS. The cells were grown at 37° C. in a humid atmosphere in the presence of 5% CO2. The MDA-MB-134 cells were grown in Leibovitz's L-15 medium supplemented with 20% FBS and grown in CO2 free atmosphere. The breast cancer cells were trypsinized (0.02% Trypsin—EDTA) and grown in their respective media (phenol red free) supplemented with 10% CSS (Charcoal stripped serum) for a week. Subsequently the cells were trypsinized again and plated onto an 8 chambered slide system (Lab Tek II) at a confluence of 60-70% per chamber. The next day treatments were performed on the breast cancer cells using their respective media (phenol red free), supplemented with 1% CSS. The MDA-MB-134 VI cells were grown in phenol red containing medium, but with the same serum conditions as the other breast cancer cells.
(§1) Terminal deoxynucleotidyl transferase mediated dUTP nick end labeling (TUNEL) assay. Nicks of the fragmented DNA are labeled at their 3-OH ends. The fluorescein-labeled dUTP is incorporated at the 3-OH ends by using the enzyme terminal deoxynucleotidyl transferase. After the assigned period of treatment the chambers were dismantled as per the manufacturer's instructions and the TUNEL assay (Apoptosis detection system, Fluorescein-Promega) was performed as per the manufacturer's instructions. The slide was examined under a FITC filter using an Olympus IX 70 microscope system.

T-47D cells = assay: Cell proliferation, ViaCount reagent and Guava PCA cytometer (viable cells); assay type: cell-based, human; settings: 24 hours of treatment, G129R 1 μg/ml, HERCEPTIN 20 μg/ml (FIG. 3)
Protocol: FIG. 3. […] The y-axis represents percent viable cells after each treatment.
This assay permits the determination of the number of total and viable cells in cultures. Cell proliferation was determined as a measure of the number of viable cells after 24 hours of treatment (FIG. 3).

prostate cancer cells = assay: TUNEL assay, apoptosis in prostate cancer cells; assay type: cell-based; settings: two prostate cancer cells, 250 ng, 24 hours
Protocol: as §1
The samples were in duplicate and each sample constituted about 2 million cells.

[2] = tested on: STAT5 phosphorylation in T-47D human breast cancer cells; assay: hPRL induction of tyrosine phosphorylation of STAT5 protein; assay type: cell-based
Excerpt: Assay of hPRL induction of tyrosine phosphorylation of STAT5 protein. […] Tyrosyl phosphorylation of STAT 5 is a receptor mediated event and is thought to be an important step in ligand-induced signal transduction (Wakao et al., EMBO J., 13:2182-2191 (1994); Kazansky et al., Mol. Endocrinol., 9:1598-1609 (1995); Waxman et al., J. Biol. Chem., 270:13262-13270 (1995)). This assay was used to evaluate the ability of hPRL and hPRLA to inhibit induction of STAT 5 phosphorylation by wild type PRL.
Briefly, human breast cancer cells were plated in 12-well plates. After pre-incubation in serum-free DMEM for 2-3 hours, the cells were exposed to various concentration of hPRL and hPRLA in serum-free DMEM. […]

[3] = tested on: Stat5a/b phosphorylation in T-47D cells; assay: Inhibition of phosphorylation of Stat5a/b, Western blot; assay type: cell-based, human; settings: 48 hours, 10 μg, in the presence of hPRL 100 ng/ml (FIG. 6)
Protocol: FIG. 6. […] T-47D cells were cultured overnight at 60% confluency and were maintained in phenol red-free and serum-free RPMI-1640 for 72 hours before stimulation. […] Lane A is the control cells that are untreated. […] Activation of Stat5 was analyzed by WB with anti-phospho-specific antibodies in 50 μg protein extracts.

[4] = Preclinical safety in animals; assay type: in vivo; settings: mice and rabbits, even at high doses
Excerpt: Previously, the inventors developed a hPRLR antagonist, G129R. G129R is prolactin with a single amino acid substation; the glycine at position 129 of the native sequence is replaced with an arginine. G129R has anti-tumor effects in cultured human breast cancer cells and in nude mouse models.

HER2 = HER2 phosphorylation, immunoprecipitation and Western blot (Example 11); assay type: cell-based, human; settings: multiple breast cancer cells
Excerpt: Human PRL signals via cell surface specific receptors that lead to JAK2/STAT/MAPK activation, which ultimately promotes cell proliferation. Phosphorylation of HER2 protein is a crucial step in the activation of its downstream signaling molecules such as Ras/MAPK cascade.
Immunoprecipitation experiments confirm the role of hPRL and G129R in regulation of phosphorylation of HER2 in multiple breast cancer cell lines. A panel of breast cancer cell lines with different levels of hPRLR and HER2 are treated with different doses of PRL (from ng/ml to ug/ml to establish a dose response curve) and terminated at the various time points (from 15 min to 24 hr to establish response time course). The optimal stimulatory dose and the response time courses are determined for each cell lines. Anti-HER2 antibody is used to immunoprecipitate HER2 in cell lysates and anti-phospho-HER2 antibody is used (Western blot) to identify the level of phosphorylated Her2 in response to the treatment.

[5] = in vivo

estrogen [reference compound]
proliferation of T47D cells relative to untreated control cultures (T47D cells): increased proliferation

CC/C(=C(\c1ccc(O)cc1)c1ccc(OCCN(C)C)cc1)c1ccccc1 [4-OH-Tamoxifen, reference compound]
apoptosis, DNA fragmentation ([1]; T-47D, MCF-7 or BT-474 cells, concentration as high as 1 μM): did not induce apoptosis

CC/C(=C(\c1ccccc1)c1ccc(OCCN(C)C)cc1)c1ccccc1 [tamoxifen, reference compound]
proliferation of T47D cells relative to untreated control cultures (T47D cells): comparable inhibitory effect

B1: G129R: hPRLR antagonist: prolactin in which the glycine at position 129 of the native sequence is replaced with an arginine (protein)
chain: LPICPGGAARCQVTLRDLFDRAVVLSHYIHNLSSEMFSEFDKRYTHGRGFITKAINSCHTSSLATPEDKEQAQQMNQKDFLSLIVSILRSWNEPLYHLVTEVRGMQEAPEAILSKAVEIEEQTKRLLERMELIVSQVHPETKENEIYPVWSGLPSLQMADEESRLSAYYNLLHCLRRDSHKIDNYLKLLKCRIIHNNNC
decrease in proliferative ability / cell number compared to untreated control cells (T-47D cells): 21.5% | apoptosis, DNA fragmentation ([1]; 250 ng, 24 hours treatment, all four PRLR positive breast cancer cell lines): induced apoptosis | DNA fragmentation in breast cancer cells ([1]; after 2 hours of treatment, 50 ng/ml): apparent | apoptosis detected by TUNEL assay (prostate cancer cells): underwent apoptosis | block of hPRL-induced phosphorylation of STAT5 proteins [2]: able to block the signal transduction induced by hPRL | proliferation of T47D cells relative to untreated control cultures (T47D cells): comparable inhibitory effect | inhibition of Stat5a/b phosphorylation [3]: inhibitory effect | safety in animals [4]: safe | phosphorylation of HER2 (HER2): able to specifically block HER2 phosphorylation | half-life [5]: 1 to 2 h

B2: hPRL: human prolactin, wild type hormone, used as positive control and stimulus (protein)
chain: LPICPGGAARCQVTLRDLFDRAVVLSHYIHNLSSEMFSEFDKRYTHGRGFITKAINSCHTSSLATPEDKEQAQQMNQKDFLSLIVSILRSWNEPLYHLVTEVRGMQEAPEAILSKAVEIEEQTKRLLEGMELIVSQVHPETKENEIYPVWSGLPSLQMADEESRLSAYYNLLHCLRRDSHKIDNYLKLLKCRIIHNNNC
proliferation of T47D cells relative to untreated control cultures (T47D cells): increased proliferation | phosphorylation of HER2 (HER2): able to phosphorylate HER2
